6 molecules from PMC5012548 can be followed below.

Data set [1] addresses T1, His-MNK1b (rMNK1b) (UniProt Q9BUB5-3 1-347). In words: Ni-NTA pull-down with qPCR. A general note: Quantitative PCR measures a nucleic acid by following its amplification.
Data set [2] deals with T1, His-MNK1b (rMNK1b). In words: ELONA.
The target in a further data set is GST-MNK1b (human, UniProt Q9BUB5-3 1-347). Kind of data set: ELONA.

B1: apMNK4R (ssDNA)
DNA: GTTGCTCGTATTTAGGGCACACACGACGAAGACCTGGCTGCCCGTTGTACACCAGTCTTCATCCGC
B1: the binding result with His-MNK1b (rMNK1b) [1] was “binds”.

B2: apMNK3F (ssDNA)
DNA: GCGGATGAAGACTGGTGTACACGCCACCTGCGAAATCCGCCCACCCCCGCCCTAAATACGAGCAAC
B2: the binding result with His-MNK1b (rMNK1b) [2] was “binds”.

B3: apMNK4F (ssDNA)
DNA: GCGGATGAAGACTGGTGTACAACGGGCAGCCAGGTCTTCGTCGTGTGTGCCCTAAATACGAGCAAC
As to B3, in the data set with His-MNK1b (rMNK1b) [2], the binding result is reported as “binds”.

B4: apMNK1F (ssDNA)
DNA: GCGGATGAAGACTGGTGTACACGCCGAACCCATTGTTCCAGGCGACATGCCCTAAATACGAGCAAC
In the case of B4, the binding result with His-MNK1b (rMNK1b) [1] was “binds”.

B5: apMNK2F (ssDNA)
DNA: GCGGATGAAGACTGGTGTGGGGTGGGCGGGCGGGGGTGGGGGTGGTATGGCGCGTTGGCCCTAAATACGAGCAAC
The term Kd denotes the equilibrium constant for the complex coming apart. A high value points to weaker binding. Take B5: in the data set with GST-MNK1b, binding was characterised by a dissociation constant (Kd) of 1.79 ± 0.48 nM.

B6: apMNK3R (ssDNA)
DNA: GTTGCTCGTATTTAGGGCGGGGGTGGGCGGATTTCGCAGGTGGCGTGTACACCAGTCTTCATCCGC
For the molecule B6, in the data set with GST-MNK1b, the Kd was 6.36 ± 1.72 nM.
